The text below walks through data of PMC10275042.

The target in this experiment is NBS1 (UniProt O60934). Put plainly: anti-Flag co-IP. As to conditions: reference: wild-type Syk-Flag; sites T504.

As to Syk (from UniProt P43405) Syk T504A, the “binding against the reference” value is on record as “lost”.
